From patent publication US20140105889A1 (published 2014)

B1: GpH7-B3/GpL16-k0 with P329Q introduced into GpH7-B3 (antibody, human IgG1)
heavy: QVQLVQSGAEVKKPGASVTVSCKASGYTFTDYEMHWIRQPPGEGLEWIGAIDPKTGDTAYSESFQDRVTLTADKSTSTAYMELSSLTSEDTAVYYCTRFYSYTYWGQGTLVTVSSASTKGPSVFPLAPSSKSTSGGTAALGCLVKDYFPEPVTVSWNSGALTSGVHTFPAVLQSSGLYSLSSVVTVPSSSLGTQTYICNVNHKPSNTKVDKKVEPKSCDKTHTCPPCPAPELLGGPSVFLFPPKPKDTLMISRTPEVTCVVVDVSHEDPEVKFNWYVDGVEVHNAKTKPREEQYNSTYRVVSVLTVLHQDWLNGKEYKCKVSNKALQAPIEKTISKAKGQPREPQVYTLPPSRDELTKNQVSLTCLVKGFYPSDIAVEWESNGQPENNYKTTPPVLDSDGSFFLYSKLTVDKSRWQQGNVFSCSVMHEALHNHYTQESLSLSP
light: DIVMTQSPLSLPVTPGEPASISCQASESLVHSNRNTYLHWYLQKPGQSPQLLIYKVSNRFSGVPDRFSGSGSGTDFTLKISRVEAEDVGVYYCSQNTHVPPTFGQGTKVEIE
notes: Anti-glypican-3 human IgG1; constant region B3 (G1d with K439E); Fc variant; also called B3 variant; copies: 2 + 2
B2: GpH7-B3/GpL16-k0 with L328R introduced into GpH7-B3 (antibody, human IgG1)
heavy: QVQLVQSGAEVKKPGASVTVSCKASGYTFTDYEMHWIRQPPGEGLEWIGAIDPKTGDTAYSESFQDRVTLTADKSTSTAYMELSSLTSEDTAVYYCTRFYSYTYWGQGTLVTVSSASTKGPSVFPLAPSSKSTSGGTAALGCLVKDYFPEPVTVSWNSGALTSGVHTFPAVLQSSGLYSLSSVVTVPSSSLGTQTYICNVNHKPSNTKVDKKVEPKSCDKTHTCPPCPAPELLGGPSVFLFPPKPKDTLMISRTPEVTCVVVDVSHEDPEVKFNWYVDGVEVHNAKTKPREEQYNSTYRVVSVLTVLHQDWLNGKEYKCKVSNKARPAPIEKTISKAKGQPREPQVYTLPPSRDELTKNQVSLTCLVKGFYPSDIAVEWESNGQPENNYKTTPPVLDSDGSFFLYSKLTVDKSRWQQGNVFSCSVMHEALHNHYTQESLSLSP
light: B1 light
notes: as for B1
B3: GpH7-B3 D270V / GpL16-k0 (antibody, human IgG1)
heavy: not shown
light: B1 light
notes: B3 variant: anti-glypican-3 IgG1 (constant region B3 = G1d with K439E) with one substitution, EU numbering; also called B3 variant D270V; copies: 2 + 2
B4: GpH7-B3/GpL16-k0 with N325W introduced into GpH7-B3 (antibody, human IgG1)
heavy: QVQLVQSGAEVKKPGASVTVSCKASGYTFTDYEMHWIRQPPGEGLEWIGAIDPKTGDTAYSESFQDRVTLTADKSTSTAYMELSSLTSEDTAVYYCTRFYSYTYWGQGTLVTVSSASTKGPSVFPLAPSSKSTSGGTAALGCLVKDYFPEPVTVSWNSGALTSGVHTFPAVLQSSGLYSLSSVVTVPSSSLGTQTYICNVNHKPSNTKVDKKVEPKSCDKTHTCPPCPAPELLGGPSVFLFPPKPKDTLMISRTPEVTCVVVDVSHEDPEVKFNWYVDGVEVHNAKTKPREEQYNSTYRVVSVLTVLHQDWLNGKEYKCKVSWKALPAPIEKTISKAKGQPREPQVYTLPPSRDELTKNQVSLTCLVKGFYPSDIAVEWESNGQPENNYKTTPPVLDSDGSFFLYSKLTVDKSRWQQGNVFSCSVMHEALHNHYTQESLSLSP
light: B1 light
notes: as for B1
B5: GpH7-B3/GpL16-k0 with L328P introduced into GpH7-B3 (antibody, human IgG1)
heavy: not shown
light: B1 light
notes: as for B1
B6: GpH7-B3/GpL16-k0 with A327Q introduced into GpH7-B3 (antibody, human IgG1)
heavy: not shown
light: B1 light
notes: as for B1
B7: GpH7-B3/GpL16-k0 with A327W introduced into GpH7-B3 (antibody, human IgG1)
heavy: not shown
light: B1 light
notes: as for B1
B8: GpH7-B3/GpL16-k0 with N325G introduced into GpH7-B3 (antibody, human IgG1)
heavy: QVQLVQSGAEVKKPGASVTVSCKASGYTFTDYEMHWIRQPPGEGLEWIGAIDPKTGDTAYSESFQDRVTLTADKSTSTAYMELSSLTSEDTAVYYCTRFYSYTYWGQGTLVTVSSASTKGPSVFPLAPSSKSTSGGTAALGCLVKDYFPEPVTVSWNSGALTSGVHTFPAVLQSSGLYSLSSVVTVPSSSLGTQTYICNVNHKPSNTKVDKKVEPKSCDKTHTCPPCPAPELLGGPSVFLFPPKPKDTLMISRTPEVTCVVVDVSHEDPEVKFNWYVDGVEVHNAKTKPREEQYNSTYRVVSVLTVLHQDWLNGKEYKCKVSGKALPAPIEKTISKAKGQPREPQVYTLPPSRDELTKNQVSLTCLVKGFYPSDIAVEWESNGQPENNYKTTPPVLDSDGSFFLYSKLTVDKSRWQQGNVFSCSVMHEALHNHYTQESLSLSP
light: B1 light
notes: as for B1
B9: GpH7-B3 D270H / GpL16-k0 (antibody, human IgG1)
heavy: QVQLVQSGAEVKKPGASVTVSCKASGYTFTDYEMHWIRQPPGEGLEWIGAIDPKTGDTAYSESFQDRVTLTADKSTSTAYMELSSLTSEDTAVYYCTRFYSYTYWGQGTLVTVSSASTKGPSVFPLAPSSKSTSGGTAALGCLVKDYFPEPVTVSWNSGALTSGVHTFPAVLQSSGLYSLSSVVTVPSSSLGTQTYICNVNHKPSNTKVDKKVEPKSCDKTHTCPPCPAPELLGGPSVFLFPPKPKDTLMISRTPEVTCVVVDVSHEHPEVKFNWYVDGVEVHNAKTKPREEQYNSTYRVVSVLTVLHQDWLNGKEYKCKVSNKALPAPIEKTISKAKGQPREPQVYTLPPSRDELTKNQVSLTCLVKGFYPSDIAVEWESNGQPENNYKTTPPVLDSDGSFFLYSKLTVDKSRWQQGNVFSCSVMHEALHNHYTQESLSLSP
light: B1 light
notes: B3 variant: anti-glypican-3 IgG1 (constant region B3 = G1d with K439E) with one substitution, EU numbering; also called B3 variant D270H; copies: 2 + 2
B10: GpH7-B3/GpL16-k0 with L328G introduced into GpH7-B3 (antibody, human IgG1)
heavy: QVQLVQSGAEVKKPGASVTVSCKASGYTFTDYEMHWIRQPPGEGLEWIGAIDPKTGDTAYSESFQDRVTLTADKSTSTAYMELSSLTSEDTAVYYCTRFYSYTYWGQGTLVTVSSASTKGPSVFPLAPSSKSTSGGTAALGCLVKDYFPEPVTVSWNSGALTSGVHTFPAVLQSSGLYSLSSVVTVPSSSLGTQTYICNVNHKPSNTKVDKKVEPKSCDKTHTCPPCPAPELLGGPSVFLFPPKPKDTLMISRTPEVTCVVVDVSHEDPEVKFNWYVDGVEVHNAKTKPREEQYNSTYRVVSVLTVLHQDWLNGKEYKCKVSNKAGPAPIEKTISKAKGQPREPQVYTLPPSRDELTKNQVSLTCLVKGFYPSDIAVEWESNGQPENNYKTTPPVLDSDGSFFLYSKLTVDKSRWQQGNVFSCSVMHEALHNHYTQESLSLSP
light: B1 light
notes: as for B1
B11: GpH7-B3/GpL16-k0 with A327S introduced into GpH7-B3 (antibody, human IgG1)
heavy: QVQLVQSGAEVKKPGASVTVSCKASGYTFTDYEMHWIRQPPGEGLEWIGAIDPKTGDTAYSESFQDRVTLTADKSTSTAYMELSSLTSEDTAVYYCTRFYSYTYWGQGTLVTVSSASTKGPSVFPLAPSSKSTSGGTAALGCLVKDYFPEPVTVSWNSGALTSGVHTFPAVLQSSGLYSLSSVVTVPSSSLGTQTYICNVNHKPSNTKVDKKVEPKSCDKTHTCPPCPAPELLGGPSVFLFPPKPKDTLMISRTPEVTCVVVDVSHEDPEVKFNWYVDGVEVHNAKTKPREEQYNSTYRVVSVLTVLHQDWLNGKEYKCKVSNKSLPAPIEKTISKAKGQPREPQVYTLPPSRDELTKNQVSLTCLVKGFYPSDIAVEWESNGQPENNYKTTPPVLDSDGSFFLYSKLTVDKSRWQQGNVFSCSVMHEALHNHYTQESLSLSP
light: B1 light
notes: as for B1
B12: GpH7-B3/GpL16-k0 with N325R introduced into GpH7-B3 (antibody, human IgG1)
heavy: not shown
light: B1 light
notes: as for B1
B13: GpH7-B3/GpL16-k0 with A327L introduced into GpH7-B3 (antibody, human IgG1)
heavy: not shown
light: B1 light
notes: as for B1
B14: GpH7-B3/GpL16-k0 with N325F introduced into GpH7-B3 (antibody, human IgG1)
heavy: not shown
light: B1 light
notes: as for B1
B15: GpH7-B3 D270N / GpL16-k0 (antibody, human IgG1)
heavy: not shown
light: B1 light
notes: B3 variant: anti-glypican-3 IgG1 (constant region B3 = G1d with K439E) with one substitution, EU numbering; also called B3 variant D270N; copies: 2 + 2
B16: GpH7-B3 P271F / GpL16-k0 (antibody, human IgG1)
heavy: not shown
light: B1 light
notes: B3 variant: anti-glypican-3 IgG1 (constant region B3 = G1d with K439E) with one substitution, EU numbering; also called B3 variant P271F; copies: 2 + 2
B17: GpH7-B3/GpL16-k0 with L328K introduced into GpH7-B3 (antibody, human IgG1)
heavy: not shown
light: B1 light
notes: as for B1
B18: GpH7-B3 D270Q / GpL16-k0 (antibody, human IgG1)
heavy: not shown
light: B1 light
notes: B3 variant: anti-glypican-3 IgG1 (constant region B3 = G1d with K439E) with one substitution, EU numbering; also called B3 variant D270Q; copies: 2 + 2
B19: GpH7-B3/GpL16-k0 with P329R introduced into GpH7-B3 (antibody, human IgG1)
heavy: not shown
light: B1 light
notes: as for B1
B20: GpH7-B3/GpL16-k0 with A327K introduced into GpH7-B3 (antibody, human IgG1)
heavy: not shown
light: B1 light
notes: as for B1
B21: GpH7-B3/GpL16-k0 with N325V introduced into GpH7-B3 (antibody, human IgG1)
heavy: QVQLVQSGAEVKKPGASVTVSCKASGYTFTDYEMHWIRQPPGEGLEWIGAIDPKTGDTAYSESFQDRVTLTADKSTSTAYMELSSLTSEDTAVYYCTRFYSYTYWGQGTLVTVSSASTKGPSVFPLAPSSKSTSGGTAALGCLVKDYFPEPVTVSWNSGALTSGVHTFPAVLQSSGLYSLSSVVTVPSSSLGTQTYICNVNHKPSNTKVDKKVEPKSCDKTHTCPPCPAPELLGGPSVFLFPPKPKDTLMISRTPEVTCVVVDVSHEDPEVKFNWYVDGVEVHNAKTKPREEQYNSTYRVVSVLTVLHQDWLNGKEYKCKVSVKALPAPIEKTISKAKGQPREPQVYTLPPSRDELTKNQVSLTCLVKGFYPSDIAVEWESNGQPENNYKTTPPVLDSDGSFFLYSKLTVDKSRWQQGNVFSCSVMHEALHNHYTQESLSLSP
light: B1 light
notes: as for B1
B22: GpH7-B3/GpL16-k0 with L328H introduced into GpH7-B3 (antibody, human IgG1)
heavy: not shown
light: B1 light
notes: as for B1
B23: GpH7-B3/GpL16-k0 with N325I introduced into GpH7-B3 (antibody, human IgG1)
heavy: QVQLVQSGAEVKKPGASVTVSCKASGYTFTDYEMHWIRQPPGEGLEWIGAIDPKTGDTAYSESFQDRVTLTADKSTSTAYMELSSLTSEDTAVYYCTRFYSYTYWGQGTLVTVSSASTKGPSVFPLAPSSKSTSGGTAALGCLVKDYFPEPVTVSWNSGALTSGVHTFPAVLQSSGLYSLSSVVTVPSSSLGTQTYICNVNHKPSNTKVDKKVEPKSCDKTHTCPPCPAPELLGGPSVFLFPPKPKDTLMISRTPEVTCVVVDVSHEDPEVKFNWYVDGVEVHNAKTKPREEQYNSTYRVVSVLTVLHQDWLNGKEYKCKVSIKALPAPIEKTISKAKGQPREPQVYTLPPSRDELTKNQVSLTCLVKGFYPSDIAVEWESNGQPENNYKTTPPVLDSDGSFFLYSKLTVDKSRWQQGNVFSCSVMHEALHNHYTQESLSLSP
light: B1 light
notes: as for B1
B24: GpH7-B3 D270M / GpL16-k0 (antibody, human IgG1)
heavy: not shown
light: B1 light
notes: B3 variant: anti-glypican-3 IgG1 (constant region B3 = G1d with K439E) with one substitution, EU numbering; also called B3 variant D270M; copies: 2 + 2
B25: GpH7-B3/GpL16-k0 with N325Y introduced into GpH7-B3 (antibody, human IgG1)
heavy: not shown
light: B1 light
notes: as for B1
B26: GpH7-B3/GpL16-k0 with A327T introduced into GpH7-B3 (antibody, human IgG1)
heavy: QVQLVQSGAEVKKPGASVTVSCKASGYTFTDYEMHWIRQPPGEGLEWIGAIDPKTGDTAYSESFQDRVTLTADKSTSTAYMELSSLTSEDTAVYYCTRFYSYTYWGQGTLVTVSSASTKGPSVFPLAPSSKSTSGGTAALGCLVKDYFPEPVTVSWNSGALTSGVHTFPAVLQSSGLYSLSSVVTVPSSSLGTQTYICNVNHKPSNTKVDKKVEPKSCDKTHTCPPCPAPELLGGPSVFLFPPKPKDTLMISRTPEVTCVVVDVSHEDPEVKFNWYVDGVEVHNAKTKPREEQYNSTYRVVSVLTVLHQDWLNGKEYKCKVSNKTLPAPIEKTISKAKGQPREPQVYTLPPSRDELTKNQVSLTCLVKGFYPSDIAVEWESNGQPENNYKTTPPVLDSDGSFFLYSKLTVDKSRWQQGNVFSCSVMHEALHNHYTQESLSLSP
light: B1 light
notes: as for B1
B27: GpH7-B3/GpL16-k0 with N325K introduced into GpH7-B3 (antibody, human IgG1)
heavy: not shown
light: B1 light
notes: as for B1
B28: GpH7-B3 P271H / GpL16-k0 (antibody, human IgG1)
heavy: not shown
light: B1 light
notes: B3 variant: anti-glypican-3 IgG1 (constant region B3 = G1d with K439E) with one substitution, EU numbering; also called B3 variant P271H; copies: 2 + 2
B29: GpH7-B3/GpL16-k0 with P329L introduced into GpH7-B3 (antibody, human IgG1)
heavy: not shown
light: B1 light
notes: as for B1

What was measured:
[1] = target: T1, human FcγRIIIa(F) (human, UniProt P08637 17-208, limits assumed); assay: SPR (Biacore), captured antibody, FcγR analyte; bound amount relative to GpH7-B3/GpL16-k0 x100;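 also: receptor response divided by the antibody amount captured on the chip before comparison with the reference antibody, measured at 25 °C in HBS-EP+ running buffer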
T1 construct: also called FcgRIIIaF; FcγRIIIa allotype F158
T1 sequence (P08637 other isoform, or with tags, fused parts or gaps limits assumed): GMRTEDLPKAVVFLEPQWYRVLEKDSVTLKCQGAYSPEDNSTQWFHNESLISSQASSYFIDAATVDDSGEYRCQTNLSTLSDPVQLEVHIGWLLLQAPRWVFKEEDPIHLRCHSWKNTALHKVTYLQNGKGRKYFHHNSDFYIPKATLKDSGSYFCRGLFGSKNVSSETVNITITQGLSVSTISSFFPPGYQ
Experimental: (§1) Interaction between each modified antibody and Fcγ receptor prepared in the manner described above was analyzed using the Biacore T100 (GE Healthcare), Biacore T200 (GE Healthcare), Biacore A100 or Biacore 4000. HBS-EP+ (GE Healthcare) was used for the running buffer, and measurements were carried out at 25° C. The chips used were chips in which antigen peptides, Protein A (Thermo Scientific), Protein A/G (Thermo Scientific) or Protein L (ACTIGEN or BioVision) were immobilized on the Series S Sensor Chip CM5 (GE Healthcare) or Series S Sensor Chip CM4 (GE Healthcare) by amine coupling, or chips in which preliminarily biotinylated antigen peptides were allowed to interact and then immobilized on the Series S Sensor Chip SA (certified) (GE Healthcare). The target antibodies were captured on these sensor chips, Fcγ receptor diluted with the running buffer was allowed to interact, followed by measurement of the amount of bound antibody. The amounts bound were compared between antibodies. However, since the amount of Fcγ receptor bound depends on the amount of captured antibody, the values used for comparison were first corrected by dividing the amount of Fcγ receptor bound by the captured amount of each antibody. Through reaction with 10 mM glycine-HCl at pH 1.5, the sensor chips were regenerated by washing off antibody captured on the sensor chips and used repeatedly.
(§2) Binding strength was evaluated according to the following method based on the results of analyzing the interaction with each FcγR. […] That value was then further multiplied by 100, and the resulting value was used as an indicator of relative binding activity to each FcγR.

[2] = target: T2, human FcγRIIIa(F) (human, UniProt P08637 17-208, limits assumed); assay: SPR (Biacore), antibody captured, FcγR as analyte
T2 construct: also called FcgRIIIaF; FcγRIIIa allotype F158
T2 sequence (P08637 other isoform, or with tags, fused parts or gaps limits assumed): as above
Experimental: as §1, §2

| Binder | relative binding activity [1] | relative binding activity (amount bound / amount bound by GpH7-B3/GpL16-k0 x100) [2] |
| --- | --- | --- |
| B1 | -1 % of GpH7-B3/GpL16-k0 |  |
| B2 | -1 % of GpH7-B3/GpL16-k0 |  |
| B3 |  | 19 % of GpH7-B3/GpL16-k0 |
| B4 | -2 % of GpH7-B3/GpL16-k0 |  |
| B5 | 3 % of GpH7-B3/GpL16-k0 |  |
| B6 | 18 % of GpH7-B3/GpL16-k0 |  |
| B7 | 17 % of GpH7-B3/GpL16-k0 |  |
| B8 | 1 % of GpH7-B3/GpL16-k0 |  |
| B9 |  | 11 % of GpH7-B3/GpL16-k0 |
| B10 | 8 % of GpH7-B3/GpL16-k0 |  |
| B11 | 42 % of GpH7-B3/GpL16-k0 |  |
| B12 | -1 % of GpH7-B3/GpL16-k0 |  |
| B13 | 13 % of GpH7-B3/GpL16-k0 |  |
| B14 | -1 % of GpH7-B3/GpL16-k0 |  |
| B15 |  | 13 % of GpH7-B3/GpL16-k0 |
| B16 |  | 39 % of GpH7-B3/GpL16-k0 |
| B17 | 0 % of GpH7-B3/GpL16-k0 |  |
| B18 |  | 49 % of GpH7-B3/GpL16-k0 |
| B19 | -2 % of GpH7-B3/GpL16-k0 |  |
| B20 | 5 % of GpH7-B3/GpL16-k0 |  |
| B21 | 2 % of GpH7-B3/GpL16-k0 |  |
| B22 | 13 % of GpH7-B3/GpL16-k0 |  |
| B23 | 1 % of GpH7-B3/GpL16-k0 |  |
| B24 |  | 29 % of GpH7-B3/GpL16-k0 |
| B25 | 5 % of GpH7-B3/GpL16-k0 |  |
| B26 | 10 % of GpH7-B3/GpL16-k0 |  |
| B27 | -2 % of GpH7-B3/GpL16-k0 |  |
| B28 |  | 50 % of GpH7-B3/GpL16-k0 |
| B29 | 0 % of GpH7-B3/GpL16-k0 |  |
